This note sets out measurements from PMC9738581, “Dissection of Functional Domains of Orc1-2, the Archaeal Global DNA Damage-Responsive Regulator”.

Numbering of substitutions follows the chain as printed.

Common to all, as to settings: protein: recombinant; tags: His; label: 5'-32P; blunt
Series [1] has as its target T1, Orc1-2 WT (Saccharolobus islandicus REY15A, UniProt F0NF18 1-413).
T1 sequence: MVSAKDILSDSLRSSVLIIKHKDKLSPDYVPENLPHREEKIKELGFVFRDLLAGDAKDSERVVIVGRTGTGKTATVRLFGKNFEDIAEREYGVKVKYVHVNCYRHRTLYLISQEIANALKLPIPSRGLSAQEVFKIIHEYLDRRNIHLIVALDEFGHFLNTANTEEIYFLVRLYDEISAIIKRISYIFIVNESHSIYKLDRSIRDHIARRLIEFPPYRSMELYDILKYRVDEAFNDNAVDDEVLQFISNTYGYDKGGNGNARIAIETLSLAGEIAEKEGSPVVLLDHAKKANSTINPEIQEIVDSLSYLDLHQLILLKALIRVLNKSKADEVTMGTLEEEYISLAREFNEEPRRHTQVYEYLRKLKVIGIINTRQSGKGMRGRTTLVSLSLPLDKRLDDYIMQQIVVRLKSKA
Nature of the series: EMSA; 25 nM protein, unlabeled specific competitor; affinity very similar to PupsE; EMSA: 20 mM HEPES pH 7.6, 10 mM (NH4)2SO4, 1 mM DTT, 0.2% Tween-20, 30 mM KCl, 40 °C 20 min, 2 nM probe; 8% native PAGE in 40 mM Tris, 20 mM boric acid. (Mobility shift assays separate free from complexed probe on a gel.)

For a further series, the target named is T2, Orc1-2 wH (Saccharolobus islandicus REY15A, UniProt F0NF18 1-413, R353A;R354A;R381A;R383A).
T2 sequence: T1 sequence with R353A, R354A, R381A, R383A
The series can be described thus: EMSA; EMSA: 20 mM HEPES pH 7.6, 10 mM (NH4)2SO4, 1 mM DTT, 0.2% Tween-20, 30 mM KCl, 40 °C 20 min, 2 nM probe; 8% native PAGE in 40 mM Tris, 20 mM boric acid.

Series [2] concerns the target T1, Orc1-2 WT. The series is described as above.
Another series has as its target T3, Orc1-2 ΔC (Saccharolobus islandicus REY15A, UniProt F0NF18 1-298).
T3 sequence: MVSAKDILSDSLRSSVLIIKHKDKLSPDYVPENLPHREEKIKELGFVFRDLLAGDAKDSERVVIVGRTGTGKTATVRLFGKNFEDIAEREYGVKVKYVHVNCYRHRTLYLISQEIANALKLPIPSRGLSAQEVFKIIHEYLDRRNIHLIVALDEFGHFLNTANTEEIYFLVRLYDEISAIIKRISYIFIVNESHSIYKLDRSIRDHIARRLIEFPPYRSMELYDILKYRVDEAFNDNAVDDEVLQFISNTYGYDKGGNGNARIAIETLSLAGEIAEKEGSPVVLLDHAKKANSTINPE
The series is described as above.

The target of another series is T4, Orc1-2 ΔN (Saccharolobus islandicus REY15A, UniProt F0NF18 299-413).
T4 sequence: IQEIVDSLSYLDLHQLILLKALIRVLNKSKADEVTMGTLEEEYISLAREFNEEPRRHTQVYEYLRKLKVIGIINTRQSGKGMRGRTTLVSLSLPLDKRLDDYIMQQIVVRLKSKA
Nature of the series: EMSA; large complexes, distributive; two distinct complexes at lowest protein concentration; EMSA: 20 mM HEPES pH 7.6, 10 mM (NH4)2SO4, 1 mM DTT, 0.2% Tween-20, 30 mM KCl, 40 °C 20 min, 2 nM probe; 8% native PAGE in 40 mM Tris, 20 mM boric acid.

The next series has as its target T5, Orc1-2 WB (Saccharolobus islandicus REY15A, UniProt F0NF18 1-413, E154A).
T5 sequence: T1 sequence with E154A
Nature of the series: EMSA; similar or stronger than WT; EMSA: 20 mM HEPES pH 7.6, 10 mM (NH4)2SO4, 1 mM DTT, 0.2% Tween-20, 30 mM KCl, 40 °C 20 min, 2 nM probe; 8% native PAGE in 40 mM Tris, 20 mM boric acid.

B1: Porc1-2 (dsDNA)
DNA 1: TTTGAGAAAGAATCAAGAAAAGTTTCGGACTACTCTCTTAGATAAA
DNA 2: TTTATCTAAGAGAGTAGTCCGAAACTTTTCTTGATTCTTTCTCAAA
On to B1, for which the binding result with Orc1-2 WT [1] is “binds”.

B2: PupsE (dsDNA)
DNA 1: CTATAAAGGAAGTTTTAAGTAATTTCGGTATTGTGTGAGTATATTT
DNA 2: AAATATACTCACACAATACCGAAATTACTTAAAACTTCCTTTATAG
For the molecule B2, the binding result in the series with Orc1-2 wH is reported as “no binding”; with Orc1-2 WT [2] it was “binds”; with Orc1-2 ΔC it was “no binding”; in the series with Orc1-2 ΔN, “binds”; with Orc1-2 WB, “binds”.
